Usually Km stands for the substrate concentration at which the rate is half of its maximum.

This is an account of results in article PMC7356819, “Lanthanide-Dependent Methanol and Formaldehyde Oxidation in Methylobacterium aquaticum Strain 22A” (Microorganisms, 2020).

For data set [1], the target named is T1, Hgd (S-hydroxymethyl glutathione dehydrogenase) (Methylobacterium aquaticum, UniProt A0A0C6FVV4).
T1 construct: gene adhC; native enzyme in cell-free extract of strain 22A; activity absent in the hgd deletion mutant
T1 sequence (A0A0C6FVV4 entry or part of it): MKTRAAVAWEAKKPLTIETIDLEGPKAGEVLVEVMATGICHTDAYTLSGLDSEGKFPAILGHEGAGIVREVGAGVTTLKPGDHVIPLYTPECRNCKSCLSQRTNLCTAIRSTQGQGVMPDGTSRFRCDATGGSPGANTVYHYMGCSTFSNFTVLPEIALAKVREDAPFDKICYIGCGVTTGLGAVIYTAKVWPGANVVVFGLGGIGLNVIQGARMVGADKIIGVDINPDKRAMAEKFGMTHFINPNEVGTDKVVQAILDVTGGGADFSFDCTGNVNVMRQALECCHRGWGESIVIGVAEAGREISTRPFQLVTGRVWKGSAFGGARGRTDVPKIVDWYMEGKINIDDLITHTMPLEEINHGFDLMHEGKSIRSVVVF
Put plainly: NADH formation at […] nm in cell-free extract, hgd deletion mutant as control. In kind it is biochemical. Particulars: S-hydroxymethylglutathione formed in situ from formaldehyde and glutathione; NAD, sodium phosphate pH 7, premix at 25 °C.

Substrate in data set [2]: CO
Put plainly: purified protein. It counts as biochemical, Methylobacterium aquaticum. Conditions: PMS and DCPIP as electron acceptors, ammonium chloride, La3+-loaded enzyme (0.58 La per monomer), Tris-HCl pH 9.0, 30 °C.

Substrate in data set [3]: C=O
Put plainly: purified protein. It counts as biochemical, Methylobacterium aquaticum. Particulars: PMS and DCPIP as electron acceptors, ammonium chloride, La3+-loaded enzyme (0.58 La per monomer), Tris-HCl pH 9.0, 30 °C, formaldehyde prepared from autoclaved paraformaldehyde.

As for `N[C@@H](CCC(=O)N[C@@H](CSCO)C(=O)NCC(=O)O)C(=O)O` [S-hydroxymethyl glutathione], the “NADH formation at 340 nm in cell-free extract, hgd deletion mutant as control” value in data set [1] is listed as “hgd indeed encodes S-hydroxymethylglutathione dehydrogenase”.

B1: XoxF1-His (XoxF1, Ln3+-dependent methanol dehydrogenase) (Methylobacterium aquaticum) (protein)
chain: NEDVLKRTANPAEQVLQTVDYANTRYSKLDQINAGNVNKLQVAWTFSTGVLRGHEGSPLVVGDVMYVHTPFPNIVYALDLNQDGKILWKYEPKQDPNVIPVMCCDTVNRGLAYADGAIFLHQADTTIVSLDAKSGKVNWSVQNGDPKIGETNTATVLPVKDKLIVGIAGAEYGIRGHITAYDLKTGKQAWRAYNLGPDAEMKIDPEKTTELGKPVGKDSSIKTWEGDQWKTGGASTWGWYSYDPKLNLVYYGTGNPSTWNPKQRPGDNKWSMTIFARDADTGVAKWVYQMTPHDEWDYDGINEMILTDQKIGDKERPLLTHFDRNGFGYTLDRATGELLVAEKYDPAVNWATKVDQDKSSKTYGRPLVVAKYSTDQNGEDTNSKGICPAALGSKDQQPAAYSPKTNLFYVPTNHVCMDYEPFRVSYTPGQPYVGATLSMYPAPNSHGGMGNFIAWDGTAGKIKWSNPEQFSVWSGALATAGDVVFYGTLEGYLKAVDSKTGKELYKFKTPSGIIGNVMTFQHKGKQNIAVLSGVGGWAGIGLAAGLTDPNAGLGAVGGYAALSSYTNLGGQLTVFNLPN
notes: His-tagged (primer-encoded at 3' end, C-terminal), tag kept; Ni-NTA; ca. 60 kDa monomer
As to B1, the Km is 30 µM in data set [2] and 340 µM in data set [3].
